Source: ChEMBL document CHEMBL2074573, “Is the monkey an appropriate animal model to examine drug-drug interactions involving renal clearance? Effect of probenecid on the renal elimination of H2 receptor antagonists” (J Pharmacol Exp Ther, 2005)

What was measured:
[1] = substrate: CNC(=C[N+](=O)[O-])NCCSCc1ccc(CN(C)C)o1; test: TP_TRANSPORTER: cell accumulation in hOAT3 expressing HEK cells; assay type: functional, cell-based, HEK293
not read [2] = substrate: NC(N)=Nc1nc(CSCCC(N)=NS(N)(=O)=O)cs1; test: not read
not read [3] = substrate: CN/C(=N/CCSCc1nc[nH]c1C)NC#N; test: not read

B1: Organic anion transporter 3 (Homo sapiens) (protein)
chain: MTFSEILDRVGSMGHFQFLHVAILGLPILNMANHNLLQIFTAATPVHHCRPPHNASTGPWVLPMGPNGKPERCLRFVHPPNASLPNDTQRAMEPCLDGWVYNSTKDSIVTEWDLVCNSNKLKEMAQSIFMAGILIGGLVLGDLSDRFGRRPILTCSYLLLAASGSGAAFSPTFPIYMVFRFLCGFGISGITLSTVILNVEWVPTRMRAIMSTALGYCYTFGQFILPGLAYAIPQWRWLQLTVSIPFFVFFLSSWWTPESIRWLVLSGKSSKALKILRRVAVFNGKKEEGERLSLEELKLNLQKEISLAKAKYTASDLFRIPMLRRMTFCLSLAWFATGFAYYSLAMGVEEFGVNLYILQIIFGGVDVPAKFITILSLSYLGRHTTQAAALLLAGGAILALTFVPLDLQTVRTVLAVFGKGCLSSSFSCLFLYTSELYPTVIRQTGMGVSNLWTRVGSMVSPLVKITGEVQPFIPNIIYGITALLGGSAALFLPETLNQPLPETIEDLENWSLRAKKPKQEPEVEKASQRIPLQPHGPGLGSS
With B1 the Km [1] was 234 µM, the Km (not read [2]) was 124 µM and the Km (not read [3]) was 149 µM.
